From patent US20190127480A1 (Regeneron, published 2019)

B1: H1H7223P (monovalent 1-arm) (antibody, human IgG1, V domains shown)
VH: QVQLVESGGGLVQPGRSLRLSCAASGFTFADYTMHWVRQAPGKGLEWVSDISWNSGSMGYADSVKGRFTISRDNAKKSLYLQMNSLRTEDTALYYCAKDGSGYGKYFFYAMDVWGQGTTVTVSS
VL: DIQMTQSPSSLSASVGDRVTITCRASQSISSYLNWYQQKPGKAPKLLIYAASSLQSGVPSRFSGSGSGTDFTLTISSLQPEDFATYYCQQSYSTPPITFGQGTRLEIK
notes: Monovalent 1-arm: second Fab removed, only the Fc portion (CH2-CH3) expressed; human IgG1 Fc; tied by numerical identifier; also called H1H7223B
B2: H1H7232P (monovalent 1-arm) (antibody, human IgG1, V domains shown)
VH: EVQLVESGGGLVHPGRSLRLSCAASGFTFDDYTMHWVRQAPGKGLEWVSDISWNSGSRGYADSVKGRFTISRDNAENSLYLQMNSLRAEDTALYYCAKDKSGYGHYYYYAMDVWGQGTTVTVSS
VL: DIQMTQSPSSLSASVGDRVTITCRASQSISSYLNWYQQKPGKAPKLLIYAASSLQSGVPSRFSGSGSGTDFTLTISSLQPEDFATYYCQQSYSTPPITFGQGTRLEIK
notes: Monovalent 1-arm: second Fab removed, only the Fc portion (CH2-CH3) expressed; human IgG1 Fc; tied by numerical identifier; also called H1H7232B
B3: H1H7194P (monovalent 1-arm) (antibody, human IgG1, V domains shown)
VH: EVQLVESGGGLVQPGRSLRLSCAASGFTFGDYTMHWVRQAPGKGLEWVSDISWNSGSKDYADSVKGRFTISRDNAKNSLYLQMNSLRTEDTAFYYCAKDSRGYGLYYHLGLDVWGQGTTVTVSS
VL: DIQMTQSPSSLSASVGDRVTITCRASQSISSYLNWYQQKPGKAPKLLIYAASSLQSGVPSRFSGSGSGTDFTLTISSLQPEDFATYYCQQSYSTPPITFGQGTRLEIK
notes: Monovalent 1-arm: second Fab removed, only the Fc portion (CH2-CH3) expressed; human IgG1 Fc; tied by numerical identifier; also called H1H7194B
B4: H1H7195P (monovalent 1-arm) (antibody, human IgG1, V domains shown)
VH: EVQLVESGGGLVQPGRSLRLSCAASGFTFADYTMHWVRQAPGKGLEWVSDISWNSGSIAYADSVKGRFTISRDNAKNSLYLQMNSLRTEDTAFYYCAKDSRGYGHYKYLGLDVWGQGTTVTVSS
VL: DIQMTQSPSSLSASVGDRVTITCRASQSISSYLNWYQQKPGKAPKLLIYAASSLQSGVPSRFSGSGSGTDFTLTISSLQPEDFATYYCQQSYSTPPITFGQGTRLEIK
notes: Monovalent 1-arm: second Fab removed, only the Fc portion (CH2-CH3) expressed; human IgG1 Fc; tied by numerical identifier; also called H1H7195B
B5: H1H7196P (monovalent 1-arm) (antibody, human IgG1, V domains shown)
VH: EVQLVESGGGMVQPGRSLRLSCAASGFPFNDYTMHWVRQVPGRGLEWVSDISWNSGSKGYADSVKGRFIISRDNAKNSLYLQMNSLRVEDTALYYCVKDGSGYGRFHYYAMDVWGQGTTVTVSS
VL: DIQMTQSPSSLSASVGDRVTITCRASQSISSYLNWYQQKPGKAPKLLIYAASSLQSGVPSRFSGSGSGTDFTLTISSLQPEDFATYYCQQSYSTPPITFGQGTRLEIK
notes: Monovalent 1-arm: second Fab removed, only the Fc portion (CH2-CH3) expressed; human IgG1 Fc; tied by numerical identifier; also called H1H7196B
B6: H1H7203P (monovalent 1-arm) (antibody, human IgG1, V domains shown)
VH: EVQLVQSGGGLVQPGRSLRLSCAASGFTFADYTMHWVRQTPGKGLEWVSGISWNSGSKDYADSVKGRFTISRDNAKNSLYLQMNSLRTEDTALYYCAKYGSGYGRYFFYAMDVWGQGTTVTVSS
VL: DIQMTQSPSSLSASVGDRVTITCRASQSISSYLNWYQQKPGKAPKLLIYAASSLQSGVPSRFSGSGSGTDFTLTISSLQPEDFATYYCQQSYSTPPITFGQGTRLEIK
notes: Monovalent 1-arm: second Fab removed, only the Fc portion (CH2-CH3) expressed; human IgG1 Fc; tied by numerical identifier; also called H1H7203B
B7: H1H7204P (monovalent 1-arm) (antibody, human IgG1, V domains shown)
VH: EVQLVESRGALVQPGRSLRLSCAASGFAFNDYTMHWVRQAPGKGLEWVSDISWNSNSKDYADSVKGRFTISRDNAKNSLYLQMNSLRAEDTALYYCVKDGSGYGKFSLYALDVWGQGTTVTVSS
VL: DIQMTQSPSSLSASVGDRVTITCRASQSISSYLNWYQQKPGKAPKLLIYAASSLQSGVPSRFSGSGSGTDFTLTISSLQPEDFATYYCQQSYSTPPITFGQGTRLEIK
notes: Monovalent 1-arm: second Fab removed, only the Fc portion (CH2-CH3) expressed; human IgG1 Fc; tied by numerical identifier; also called H1H7204B
B8: H1H7211P (monovalent 1-arm) (antibody, human IgG1, V domains shown)
VH: EVQLVESGGGLVHPGRSLRLSCTASGFKFADYTMHWVRQAPGKGLEWVSDISWNSGSKGYADSVKGRFTISRDNDKNSLYLQMNSLRGEDTALYYCAKDGSGYGRFHFYAIDVWGQGTTVTVSS
VL: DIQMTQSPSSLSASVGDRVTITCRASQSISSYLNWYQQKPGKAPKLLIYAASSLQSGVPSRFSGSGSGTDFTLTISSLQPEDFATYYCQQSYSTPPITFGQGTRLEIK
notes: Monovalent 1-arm: second Fab removed, only the Fc portion (CH2-CH3) expressed; human IgG1 Fc; tied by numerical identifier; also called H1H7211B
B9: H1H7226P (monovalent 1-arm) (antibody, human IgG1, V domains shown)
VH: EVQLVQSGGGLVQPGRSLRLSCAASGFTFSDYTMHWVRQGPGKGLEWVSDISWNSGSKGYTDSVKGRFTISRDNAKKSLYLQMNSLRAEDTALYYCVKDGSGYGKYHFYAMDVWGQGTLVTVSS
VL: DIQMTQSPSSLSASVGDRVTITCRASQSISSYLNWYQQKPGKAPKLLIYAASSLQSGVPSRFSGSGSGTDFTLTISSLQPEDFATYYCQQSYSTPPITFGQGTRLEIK
notes: Monovalent 1-arm: second Fab removed, only the Fc portion (CH2-CH3) expressed; human IgG1 Fc; tied by numerical identifier; also called H1H7226B
B10: H1H7233P (monovalent 1-arm) (antibody, human IgG1, V domains shown)
VH: EVQLVESGGGLVQPGGSLRLSCEASGFTFADYTLHWVRQAPGKGLEWVSDISWNSGTRGYADSVRGRFTISRDNAKKSLYLQMNSLRSEDTALYYCVKDGSGYGRYNFYAMDVWGQGTTVTVSS
VL: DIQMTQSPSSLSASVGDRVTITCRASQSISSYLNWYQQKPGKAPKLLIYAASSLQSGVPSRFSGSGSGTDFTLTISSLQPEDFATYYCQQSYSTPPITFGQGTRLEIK
notes: Monovalent 1-arm: second Fab removed, only the Fc portion (CH2-CH3) expressed; human IgG1 Fc; tied by numerical identifier; also called H1H7233B
B11: H1H7242P (monovalent 1-arm) (antibody, human IgG1, V domains shown)
VH: EVQLVESGGGLVQPGRSLRLSCAASGFTFDDYTMHWVRQGPGKGLEWVSDIGWNSNSIGYADSVKGRFTISRDNAKNSLYLQMNSLRPEDTALYFCVKDKSGYGKFFIGLDVWGQGTMVTVSS
VL: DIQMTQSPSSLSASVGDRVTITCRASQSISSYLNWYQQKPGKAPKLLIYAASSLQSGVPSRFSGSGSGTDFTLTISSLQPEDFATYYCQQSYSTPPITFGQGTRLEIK
notes: Monovalent 1-arm: second Fab removed, only the Fc portion (CH2-CH3) expressed; human IgG1 Fc; tied by numerical identifier; also called H1H7242B
B12: H1H7241P (monovalent 1-arm) (antibody, human IgG1, V domains shown)
VH: EVQLVESGGGLVQPGRSLRLSCAASGFTFADYTMHWVRQGPGKGLEWVSDIGWNSNTIGYADSVKGRFAISRDNAKNSLYLQMNSLRPEDTALYYCVKDKSGYGKFQYGLDVWGQGTTVTVSS
VL: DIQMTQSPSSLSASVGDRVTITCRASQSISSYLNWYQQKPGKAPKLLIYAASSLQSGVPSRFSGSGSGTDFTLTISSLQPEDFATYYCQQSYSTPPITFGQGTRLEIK
notes: Monovalent 1-arm: second Fab removed, only the Fc portion (CH2-CH3) expressed; human IgG1 Fc; tied by numerical identifier; also called H1H7241B
B13: H1H7250P (monovalent 1-arm) (antibody, human IgG1, V domains shown)
VH: QVQLVESGGGLVQPGRSLRLSCAASGFTFDDYTMHWVRQGPGKGLEWVSDIGWNSNTKGYADSVKGRFTISRDNAKNSLYLQMNSLRPEDTALYFCVKDKSGYGKFFIGLDVWGQGTMVTVSS
VL: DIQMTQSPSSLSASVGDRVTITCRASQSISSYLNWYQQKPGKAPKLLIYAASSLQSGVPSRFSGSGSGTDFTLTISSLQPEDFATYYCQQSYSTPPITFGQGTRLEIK
notes: Monovalent 1-arm: second Fab removed, only the Fc portion (CH2-CH3) expressed; human IgG1 Fc; tied by numerical identifier; also called H1H7250B
B14: H1H7251P (monovalent 1-arm) (antibody, human IgG1, V domains shown)
VH: EVQLVESGGGLVQPGRSLRLSCAASGFTFADYTMHWVRQGPGTGLEWVSDIGWSGGSLGYADSVKGRFTISRDNAKNSLYLEMNNLRPEDTALYYCVKDKSGYGKFQYGLDVWGQGTTVTVSS
VL: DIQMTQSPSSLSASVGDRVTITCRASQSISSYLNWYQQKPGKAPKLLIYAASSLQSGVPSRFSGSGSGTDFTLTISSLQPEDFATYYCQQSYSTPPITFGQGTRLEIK
notes: Monovalent 1-arm: second Fab removed, only the Fc portion (CH2-CH3) expressed; human IgG1 Fc; tied by numerical identifier; also called H1H7251B
B15: H1H7254P (monovalent 1-arm) (antibody, human IgG1, V domains shown)
VH: EVQLVESGGGVVQPGRSLRLSCAASGFKFDGYTMHWVRQGPGKGLEWVSDIGWNSNTIGYADSVKGRFTISRDNAKNSLYLQMNSLRPEDTALYFCVKDKSGYGKFFIGLDVWGQGTMVTVSS
VL: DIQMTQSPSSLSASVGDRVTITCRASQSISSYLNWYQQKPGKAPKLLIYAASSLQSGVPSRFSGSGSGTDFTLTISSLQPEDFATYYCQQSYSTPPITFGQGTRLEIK
notes: Monovalent 1-arm: second Fab removed, only the Fc portion (CH2-CH3) expressed; human IgG1 Fc; tied by numerical identifier; also called H1H7254B
B16: H1H7258P (monovalent 1-arm) (antibody, human IgG1, V domains shown)
VH: QVQLVESGGGLVQPGRSLRLSCAASGFTFDDYTMHWVRQGPGKGLEWVSDIGWNSNTIGYADSVKGRFTISRDNARNSLYLQMNSLRPEDTALYYCVKDKSGYGKFQYGLDVWGQGTTVTVSS
VL: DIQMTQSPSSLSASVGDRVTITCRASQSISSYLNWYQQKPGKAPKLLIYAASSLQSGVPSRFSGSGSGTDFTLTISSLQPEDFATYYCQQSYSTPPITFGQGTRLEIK
notes: Monovalent 1-arm: second Fab removed, only the Fc portion (CH2-CH3) expressed; human IgG1 Fc; tied by numerical identifier; also called H1H7258B
B17: H1H7269P (monovalent 1-arm) (antibody, human IgG1, V domains shown)
VH: QVQLVESGGGLVQPGRSLRLSCAASGFKFDDYTMHWVRQGPGKGLEWVSDISWSGGSIDYTDSVKGRFSISRDNAKNSLYLQMNSLRVEDTALYYCVKDKSGYGKYSYGLDVWGQGTTVTVSS
VL: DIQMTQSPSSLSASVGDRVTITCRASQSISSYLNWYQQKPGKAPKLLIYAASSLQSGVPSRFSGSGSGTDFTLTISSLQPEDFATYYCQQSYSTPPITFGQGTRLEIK
notes: Monovalent 1-arm: second Fab removed, only the Fc portion (CH2-CH3) expressed; human IgG1 Fc; tied by numerical identifier; also called H1H7269B

How the values were obtained:
[1] = target: T1, Soluble heterodimeric CD3 protein (hCD3-epsilon/hCD3-delta) with either a human Fc tag (hFcΔAdp/hFc) or a … (human, UniProt P07766 23-126; P04234 22-105); experiment: SPR Biacore 25C antigen-capture, 1-arm
T1 construct: also called hCD3ε/δ; not shown: Fc tag: human (hFcΔAdp/hFc)
Experimental: In the antigen-capture format, heterodimeric CD3 protein was captured using a rabbit anti-mouse Fc or mouse anti-human Fc and the respective antibodies were injected over the captured antigen.
(§1) Kinetic association (kₐ) and dissociation (kd) rate constants were determined by processing and fitting the data to a 1:1 binding model using Scrubber 2.0 curve fitting software. Binding dissociation equilibrium constants (KD) and dissociative half-lives (t₁₁₂) were calculated from the kinetic rate constants as: KD (M)=kd/kₐ; and t_{1/2} (min)=(ln 2/(60*kd). NT=not tested; NB=no binding observed.

[2] = target: T1, Soluble heterodimeric CD3 protein …; experiment: SPR Biacore 25C antibody-capture, 1-arm
Experimental: Soluble heterodimeric CD3 protein (hCD3-epsilon/hCD3-delta; SEQ ID NOs:1652/1653) with either a human Fc tag (hFcΔAdp/hFc; SEQ ID NOs:1683/1684) or a mouse Fc tag (mFcΔAdp/mFc; SEQ ID NOs:1685/1686) was injected over the antibody captured surface and the binding response was recorded. Heterodimeric CD3 protein was purified using the method described in Davis et al. (US2010/0331527).
as §1

T1 sequence (P07766 23-126 limits assumed, stated change not applied, chain 1 of 2): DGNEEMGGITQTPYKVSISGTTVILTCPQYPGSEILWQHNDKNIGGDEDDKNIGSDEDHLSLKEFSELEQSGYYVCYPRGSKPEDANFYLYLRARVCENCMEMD
T1 sequence (P04234 22-105 limits assumed, stated change not applied, chain 2 of 2): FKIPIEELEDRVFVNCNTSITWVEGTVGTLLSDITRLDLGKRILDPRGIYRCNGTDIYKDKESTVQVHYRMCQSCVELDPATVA

| Binder | Kd [1] [nM] | T½ [1] [min] | koff [1] [s⁻¹] | kon [1] [M⁻¹ s⁻¹] | Kd [2] [nM] | T½ [2] [min] | koff [2] [s⁻¹] | kon [2] [M⁻¹ s⁻¹] |
| --- | --- | --- | --- | --- | --- | --- | --- | --- |
| B1 | 1.53 | 40 | 0.000286 | 187000 | 19.2 | 38 | 0.000307 | 16000 |
| B2 | 10 | 8 | 0.00149 | 149000 | 220 | 7 | 0.00177 | 8030 |
| B3 | 0.241 | 137 | 8.43e-05 | 350000 | 13 | 76 | 0.000151 | 11600 |
| B4 | 0.126 | 162 | 7.14e-05 | 566000 | 3.16 | 117 | 9.89e-05 | 31300 |
| B5 | 2.49 | 25 | 0.000461 | 185000 | 41.3 | 26 | 0.000443 | 10700 |
| B6 | 0.498 | 48 | 0.000238 | 479000 | 18.3 | 43 | 0.000267 | 14600 |
| B7 | 2.12 | 32 | 0.000365 | 173000 | 25.3 | 32 | 0.000362 | 14300 |
| B8 | 0.279 | 120 | 9.61e-05 | 345000 | 11.3 | 73 | 0.000159 | 14100 |
| B9 | 0.565 | 49 | 0.000236 | 418000 | 27.2 | 33 | 0.000355 | 13000 |
| B10 | 1.27 | 57 | 0.000204 | 161000 | 24.2 | 43 | 0.000269 | 11100 |
| B11 | 2.63 | 11 | 0.00101 | 383000 | 30.9 | 17 | 0.000664 | 21500 |
| B12 | 1.26 | 49 | 0.000236 | 187000 | 22 | 39 | 0.000295 | 13400 |
| B13 | 0.82 | 61 | 0.000189 | 231000 | 10.5 | 47 | 0.000247 | 23400 |
| B14 | 2.67 | 10 | 0.00119 | 447000 | 41.7 | 11 | 0.00107 | 25600 |
| B15 | 0.762 | 35 | 0.00033 | 433000 | 14.9 | 30 | 0.000388 | 26000 |
| B16 | 2.18 | 40 | 0.00029 | 133000 | 24 | 38 | 0.000302 | 12600 |
| B17 | 24.9 | 2 | 0.00689 | 277000 | 243 | 2 | 0.00624 | 25700 |
